Results: patent publication US20160090416A1 (NUMAB, published 2016)
Changes are numbered by the printed parent chain.

B1: clone-10 (antibody, V domains shown)
VH: QSLEESGGRLVTPGTPLTLTCTVSGFPLSSFAMLWVRQAPGKGLEWIGMIMRAHNMYYASWAKGRFTISKTSTTVDLEITSPTTEDTATYFCARRHYNTYGYPIAIGDLWGPGTLVTVSS
VL: AQVLTQTPSSVSAAVGGTATISCQSNENIYSNNRLSWFQQKAGQPPNQLIYSASSLASGVPSRFKGSGSGTQFTLTISDLECDDAATYYCQGEFSCSSADCFTFGGGTEVVVKG
B2: clone-06 (antibody, V domains shown)
VH: QSVEESGGRLVTPGTPLTLTCTVSGFPLSSYAMIWVRQAPGKGLEWIGMILRAGNIYYASWVKGRVTISKTSTTVDLKITSPTTEDTATYFCARRHYNREGYPIGIGDLWGPGTLVTVSS
VL: AQVLTQTPSSVSAAVGGTVTISCQSSESVYNNKRLSWFQQKPGQPPKQLIYTASSLASGVPSRFKGSGSGTQFTLTISDLECDDAATYYCQGEFTCSNADCFTFGGGTEVVVKG
B3: clone-04 (antibody, V domains shown)
VH: QSLEESGGRLVKPDETLTLTCTVSGFPLSSYAMGWFRQAPGKGLEWIGMILRSDNTYYASWAKGRFTISKTSTTVDLKITSPTTEDTATYFCARRHYNASGNPIAIGDLWGPGTLVTVSS
VL: B2 VL with S22N, E27Q, K33N, Q48L, A53T, Q72E, D83A, T95S, N98R, T103N
B4: clone-03 (antibody, V domains shown)
VH: B1 VH with S29N, S30R, F31Y, M49L, M51T, H54D, N55K, M56K, S81G, Y100D
VL: B1 VL with A19V, A42P, S95N, S97N
B5: clone-02 (antibody, V domains shown)
VH: QSLEESGGRLVTPGTPLTLTCTVSGFPLSAYAMIWVRQAPGKGLEWIGMIIRSGTVYYANWAKGRFTISKTSTTVDLKITSPTTEDTATYFCARRHYNADGYPIGIGDLWGPGTLVTVSS
VL: AQVLTQTPSSVSAVVGGTVTISCQSSESVYSNNRLSWFQQKPGQPPKLLIYSASTLASGVPSRFKGSGSGTQFTLTITDLECDDAATYFCQGEFSCSSVDCFSFGGGTEVVVKG
B6: Construct 2 (anti-CD3×anti-IL5R scDb comprising the humanized variable domain of clone-02) (bispecific antibody)
chain: DIQMTQSPSSLSASVGDRVTITCQASQNIYSNLAWYQQKPGKAPKLLIYRASTLASGVPSRFSGSGSGTDFTLTISSLQPEDFATYYCQSNYGINYYGAAFGQGTKLTVLGGGGGSEVQLVESGGGLVQPGGSLRLSCAASGFPLSAYAMIWVRQAPGKGLEWIGMIIRSGTVYYANWAKGRFTISRDNSKNTVYLQMNSLRAEDTAVYYCARRHYNADGYPIGIGDLWGQGTLVTVSSGGGGSGGGGSGGGGSGGGGSDIQMTQSPSSLSASVGDRVTITCQSSESVYSNNRLSWYQQKPGKAPKLLIYSASTLASGVPSRFSGSGSGTDFTLTISSLQPEDFATYYCQGEFSCSSVDCFSFGQGTKLTVLGGGGGSEVQLVESGGGLVQPGGSLRLSCAASGFSLSSYDMTWVRQAPGKGLEWIGIIYVSGSAYYASWAKGRFTISRDNSKNTVYLQMNSLRAEDTAVYYCARINYGLDLWGQGTLVTVSS
B7: Construct 1 (anti-CD3×anti-IL5R scDb comprising the humanized variable domain of clone-06) (bispecific antibody)
chain: DIQMTQSPSSLSASVGDRVTITCQASQNIYSNLAWYQQKPGKAPKLLIYRASTLASGVPSRFSGSGSGTDFTLTISSLQPEDFATYYCQSNYGINYYGAAFGQGTKLTVLGGGGGSEVQLVESGGGLVQPGGSLRLSCAASGFPLSSYAMIWVRQAPGKGLEWIGMILRAGNIYYASWVKGRFTISRDNSKNTVYLQMNSLRAEDTAVYYCARRHYNREGYPIGIGDLWGQGTLVTVSSGGGGSGGGGSGGGGSGGGGSDIQMTQSPSSLSASVGDRVTITCQSSESVYNNKRLSWYQQKPGKAPKLLIYTASSLASGVPSRFSGSGSGTDFTLTISSLQPEDFATYYCQGEFTCSNADCFTFGQGTKLTVLGGGGGSEVQLVESGGGLVQPGGSLRLSCAASGFSLSSYDMTWVRQAPGKGLEWIGIIYVSGSAYYASWAKGRFTISRDNSKNTVYLQMNSLRAEDTAVYYCARINYGLDLWGQGTLVTVSS
B8: Construct 3 (anti-CD3×anti-IL5R scDb comprising the humanized variable domain of clone-03) (bispecific antibody)
chain: DIQMTQSPSSLSASVGDRVTITCQASQNIYSNLAWYQQKPGKAPKLLIYRASTLASGVPSRFSGSGSGTDFTLTISSLQPEDFATYYCQSNYGINYYGAAFGQGTKLTVLGGGGGSEVQLVESGGGLVQPGGSLRLSCAVSGFPLNRYAMLWVRQAPGKGLEWIGLITRADKKYYASWAKGRFTISKDNSKNTVYLQMNSLRAEDTAVYYCARRHYNTDGYPIAIGDLWGQGTLVTVSSGGGGSGGGGSGGGGSGGGGSDIQMTQSPSSLSASVGDRVTISCQSNENIYSNNRLSWYQQKPGKAPKLLIYSASSLASGVPSRFSGSGSGTDFTLTISDLEPEDFATYYCQGEFNCNSADCFTFGQGTKLTVLGGGGGSEVQLVESGGGLVQPGGSLRLSCAASGFSLSSYDMTWVRQAPGKGLEWIGIIYVSGSAYYASWAKGRFTISRDNSKNTVYLQMNSLRAEDTAVYYCARINYGLDLWGQGTLVTVSS

The molecules below were run against human CD3ε expressed on the cell surface of T cells (Jurkat clone E6-1; human CD8+ T cells) (human) (UniProt P07766) (assay: cell-based or functional assay).
Sequence of human CD3ε expressed on the cell surface of T cells (Jurkat clone E6-1; human CD8+ T cells) (human) (P07766 23-207): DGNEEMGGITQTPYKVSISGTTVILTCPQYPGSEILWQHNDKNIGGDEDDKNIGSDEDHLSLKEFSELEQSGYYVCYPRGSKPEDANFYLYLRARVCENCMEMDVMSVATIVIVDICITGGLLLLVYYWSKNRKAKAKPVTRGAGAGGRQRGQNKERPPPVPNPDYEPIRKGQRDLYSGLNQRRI
For TR66 (antibody), the Fold increase in CD69 expression [MFI normalized to neg. ctrl.], 1.25 µg/ml anti-CD3 IgG, cross-linked, Jurkat cells, 24 h was 1.6 fold, the Fold increase in CD69 expression [MFI normalized to neg. ctrl.], 5 µg/ml anti-CD3 IgG, cross-linked, Jurkat cells, 24 h was 2.2 fold and the Fold increase in CD69 expression [MFI normalized to neg. ctrl.], 20 µg/ml anti-CD3 IgG, cross-linked, Jurkat cells, 24 h was 3 fold. Work on OKT3 (antibody) yielded a Fold increase in CD69 expression [MFI normalized to neg. ctrl.], 1.25 µg/ml anti-CD3 IgG, cross-linked, Jurkat cells, 24 h of 1.8 fold, a Fold increase in CD69 expression [MFI normalized to neg. ctrl.], 5 µg/ml anti-CD3 IgG, cross-linked, Jurkat cells, 24 h of 2.5 fold and a Fold increase in CD69 expression [MFI normalized to neg. ctrl.], 20 µg/ml anti-CD3 IgG, cross-linked, Jurkat cells, 24 h of 3.1 fold.

These molecules were tested against T1, human CD3ε expressed on the cell surface of T cells (Jurkat clone E6-1; human CD8+ T cells) (human, UniProt P07766 23-207) (assay: cell-based or functional assay).
T1 sequence (P07766 23-207): as above
For B1, the “Fold increase in CD69 expression [MFI normalized to neg. ctrl.], 1.25 µg/ml anti-CD3 IgG, cross-linked, Jurkat cells, 24 h” value was 2.6 fold, the “Fold increase in CD69 expression [MFI normalized to neg. ctrl.], 5 µg/ml anti-CD3 IgG, cross-linked, Jurkat cells, 24 h” value was 4.2 fold and the “Fold increase in CD69 expression [MFI normalized to neg. ctrl.], 20 µg/ml anti-CD3 IgG, cross-linked, Jurkat cells, 24 h” value was 6.2 fold. B2 was tested, and the “Fold increase in CD69 expression [MFI normalized to neg. ctrl.], 1.25 µg/ml anti-CD3 IgG, cross-linked, Jurkat cells, 24 h” value was 2.7 fold, the “Fold increase in CD69 expression [MFI normalized to neg. ctrl.], 5 µg/ml anti-CD3 IgG, cross-linked, Jurkat cells, 24 h” value was 5.1 fold and the “Fold increase in CD69 expression [MFI normalized to neg. ctrl.], 20 µg/ml anti-CD3 IgG, cross-linked, Jurkat cells, 24 h” value was 5.3 fold. For B3, the “Fold increase in CD69 expression [MFI normalized to neg. ctrl.], 1.25 µg/ml anti-CD3 IgG, cross-linked, Jurkat cells, 24 h” value was 2.6 fold, the “Fold increase in CD69 expression [MFI normalized to neg. ctrl.], 5 µg/ml anti-CD3 IgG, cross-linked, Jurkat cells, 24 h” value was 3.5 fold and the “Fold increase in CD69 expression [MFI normalized to neg. ctrl.], 20 µg/ml anti-CD3 IgG, cross-linked, Jurkat cells, 24 h” value was 7.8 fold. In the case of B4, the “Fold increase in CD69 expression [MFI normalized to neg. ctrl.], 1.25 µg/ml anti-CD3 IgG, cross-linked, Jurkat cells, 24 h” value is reported as 2.6 fold, the “Fold increase in CD69 expression [MFI normalized to neg. ctrl.], 5 µg/ml anti-CD3 IgG, cross-linked, Jurkat cells, 24 h” value is reported as 4.6 fold and the “Fold increase in CD69 expression [MFI normalized to neg. ctrl.], 20 µg/ml anti-CD3 IgG, cross-linked, Jurkat cells, 24 h” value is reported as 6.6 fold. With B5 the “Fold increase in CD69 expression [MFI normalized to neg. ctrl.], 1.25 µg/ml anti-CD3 IgG, cross-linked, Jurkat cells, 24 h” value was 3.3 fold, the “Fold increase in CD69 expression [MFI normalized to neg. ctrl.], 5 µg/ml anti-CD3 IgG, cross-linked, Jurkat cells, 24 h” value was 4.6 fold and the “Fold increase in CD69 expression [MFI normalized to neg. ctrl.], 20 µg/ml anti-CD3 IgG, cross-linked, Jurkat cells, 24 h” value was 7.4 fold.

Molecular target: T1, human CD3ε expressed on the cell …
Experiment: cell-based or functional assay
Remark: another data set of the same source
B6 was tested, and the “Potency to stimulate IL-2 secretion by T cells [EC50] (CD8+ T cells with CHO-IL5R cells, 16 h)” value was 5.67 nM. With B7 the “Potency to lyse target cells [EC50] (CHO-IL5R cells, human CD8+ T cells, 88 h)” value was 0.1 nM and the “Potency to stimulate IL-2 secretion by T cells [EC50] (CD8+ T cells with CHO-IL5R cells, 16 h)” value was 0.96 nM.

The molecules below were run against T2, human heterodimeric single-chain CD3εγ extracellular domain (human, UniProt P07766 23-126; P09693 23-116) (assay: SPR (MASS-1), human scCD3εγ ECD immobilized, scDb injected).
T2 construct: extracellular domain; Produced in-house; single-chain protein of the extracellular domains of CD3ε and CD3γ joined by a flexible linker; also called scCD3γε; human CD3ge
T2 sequence (P07766 23-126, chain 1 of 2): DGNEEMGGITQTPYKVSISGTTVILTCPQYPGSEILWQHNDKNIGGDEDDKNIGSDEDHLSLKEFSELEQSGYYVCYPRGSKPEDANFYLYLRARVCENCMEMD
T2 sequence (P09693 23-116, chain 2 of 2): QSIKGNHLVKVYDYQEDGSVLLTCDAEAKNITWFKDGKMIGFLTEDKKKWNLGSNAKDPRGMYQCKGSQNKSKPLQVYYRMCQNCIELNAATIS
In the case of B8, the Kd is reported as 123 nM. With B6 the Kd was 29.6 nM. Work on B7 yielded a Kd of 11.5 nM.
